T1: N-terminally truncated human AIMP2 splice variant lacking exon 2 (residues Ser34–Gln45 and Asp115–Lys320) (human, UniProt Q13155 34-45; Q13155 115-320)
T1 construct: human AIMP2, residues Asp115–Lys320 (exons 3 and 4, GST domain); joined directly to Gln45 as in the splice variant AIMP2-DX2 that lacks exon 2; also called AIMP2-DX2-S34; AIMP2GST; source: E. coli BL21-CodonPlus (DE3)-RIPL; culture pooled with those of the partners, co-purified (HiTrap Chelating HP, Superdex 200); not shown: His6, C-terminal, kept
T1 sequence (looked up): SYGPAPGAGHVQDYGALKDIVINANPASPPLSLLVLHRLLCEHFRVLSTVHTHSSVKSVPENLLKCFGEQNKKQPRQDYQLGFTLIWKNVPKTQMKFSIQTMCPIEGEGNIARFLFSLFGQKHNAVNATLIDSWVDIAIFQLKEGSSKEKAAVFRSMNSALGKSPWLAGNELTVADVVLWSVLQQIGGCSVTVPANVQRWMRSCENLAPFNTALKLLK


What was measured:
[1] = molecular target: T1, N-terminally truncated human AIMP2 …; test: SEC; separately transformed strains pooled in one culture, proteins met on cell disruption by sonication; His6 affinity (HiTrap Chelating HP), then HiLoad 16/600 Superdex 200 pg in 50 mM HEPES–NaOH pH 8.0, 200 mM NaCl, 5 mM DTT, 1% glycerol; SDS–PAGE of the highest peak; conditions: partners not purified
[2] = molecular target: the molecule itself; test: crystal structure; DRS–AIMP2-DX2-S34–EPRSGST (DA2E) subcomplex, 3.6 Å, space group P6_(1), two subcomplexes in the asymmetric unit; crystals at 22°C from sodium/potassium phosphate, 0.1 M CAPS pH 10.5, lithium sulfate

binding result [1]	Binder	binding result [2]
binds	C-terminally truncated human EPRSGST (Met1–Gln157) (domain or fragment, UniProt P07814 1-157, looked up, human glutamyl-prolyl-tRNA synthetase (EPRS), GST domain, residues Met1–Gln157; also called GST domain of glutamyl-prolyl-tRNA synthetase; source: E. coli BL21-CodonPlus (DE3)-RIPL; culture pooled with those of the partners, co-purified (HiTrap Chelating HP, Superdex 200); not shown: His6, C-terminal, kept) MATLSLTVNSGDPPLGALLAVEHVKDDVSISVEEGKENILHVSENVIFTDVNSILRYLARVATTAGLYGSNLMEHTEIDHWLEFSATKLSSCDSFTSTINELNHCLSLRTYLVGNSLSLADLCVWATLKGNAAWQEQLKQKKAPVHVKRWFGFLEAQ	–
–	N-terminally truncated human aspartyl-tRNA synthetase (residues Ala21–Pro501) (enzyme, UniProt P14868 21-501, looked up, human aspartyl-tRNA synthetase (DRS), cytosolic, residues Ala21–Pro501; Homodimer in the crystal structure of the DA2E subcomplex; No removal of the His6 tag is described; also called DRS; source: E. coli Rosetta2 (DE3)pLysS; culture pooled with those of the partners, co-purified (HiTrap Chelating HP, Superdex 200); not shown: His6, N-terminal, kept) AEDYAKERYGISSMIQSQEKPDRVLVRVRDLTIQKADEVVWVRARVHTSRAKGKQCFLVLRQQQFNVQALVAVGDHASKQMVKFAANINKESIVDVEGVVRKVNQKIGSCTQQDVELHVQKIYVISLAEPRLPLQLDDAVRPEAEGEEEGRATVNQDTRLDNRVIDLRTSTSQAVFRLQSGICHLFRETLINKGFVEIQTPKIISAASEGGANVFTVSYFKNNAYLAQSPQLYKQMCICADFEKVFSIGPVFRAEDSNTHRHLTEFVGLDIEMAFNYHYHEVMEEIADTMVQIFKGLQERFQTEIQTVNKQFPCEPFKFLEPTLRLEYCEALAMLREAGVEMGDEDDLSTPNEKLLGHLVKEKYDTDFYILDKYPLAVRPFYTMPDPRNPKQSNSYDMFMRGEEILSGAQRIHDPQLLTERALHHGIDLEKIKAYIDSFRFGAPPHAGGGIGLERVTMLFLGLHNVRQTSMFPRDPKRLTP	binds

— paper PMC6760448, “The DRS–AIMP2–EPRS subcomplex acts as a pivot in the multi-tRNA synthetase complex” (IUCrJ, 2019)
